Assays:
[1] = target: T1, human sodium-dependent phosphate transporter 2B (NaPi2b) (human, UniProt O95436 1-690); assay: flow cytometry on IGROV-1 cells (endogenous NaPi2b), 24 h at 4 C, anti-human IgG Fc AF647
T1 construct: UniProt ID is given as 095436 [sic]; also called hNaPi2b; Hu NaPi2b
T1 sequence: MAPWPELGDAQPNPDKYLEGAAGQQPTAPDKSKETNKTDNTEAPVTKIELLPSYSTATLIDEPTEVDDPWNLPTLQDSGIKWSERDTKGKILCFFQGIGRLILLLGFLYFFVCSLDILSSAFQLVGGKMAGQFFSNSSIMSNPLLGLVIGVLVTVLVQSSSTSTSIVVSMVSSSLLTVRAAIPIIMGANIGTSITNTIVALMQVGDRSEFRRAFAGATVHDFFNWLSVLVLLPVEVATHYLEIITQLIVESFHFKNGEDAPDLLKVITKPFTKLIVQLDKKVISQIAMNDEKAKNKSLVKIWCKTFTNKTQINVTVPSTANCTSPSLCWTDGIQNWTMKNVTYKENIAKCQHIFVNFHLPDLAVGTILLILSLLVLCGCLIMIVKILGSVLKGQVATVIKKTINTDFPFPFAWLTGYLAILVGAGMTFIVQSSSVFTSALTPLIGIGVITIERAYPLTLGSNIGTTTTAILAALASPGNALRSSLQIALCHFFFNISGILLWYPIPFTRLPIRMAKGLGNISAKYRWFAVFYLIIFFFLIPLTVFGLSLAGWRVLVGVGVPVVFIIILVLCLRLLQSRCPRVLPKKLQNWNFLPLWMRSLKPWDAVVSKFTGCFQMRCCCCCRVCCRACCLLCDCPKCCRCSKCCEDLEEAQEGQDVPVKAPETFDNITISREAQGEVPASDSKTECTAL

[2] = target: T1, human sodium-dependent phosphate …; assay: flow cytometry on OVCAR-3 cells (endogenous NaPi2b), 24 h at 4 C, anti-human IgG Fc AF647
[3] = target: T2, mouse NaPi2b (mouse, UniProt Q9DBP0 1-697); assay: flow cytometry on HEK293-6e cells transfected with mouse NaPi2b, 24 h at 4 C, anti-human IgG Fc AF647
T2 construct: also called Ms NaPi2b; CL #13476
T2 sequence: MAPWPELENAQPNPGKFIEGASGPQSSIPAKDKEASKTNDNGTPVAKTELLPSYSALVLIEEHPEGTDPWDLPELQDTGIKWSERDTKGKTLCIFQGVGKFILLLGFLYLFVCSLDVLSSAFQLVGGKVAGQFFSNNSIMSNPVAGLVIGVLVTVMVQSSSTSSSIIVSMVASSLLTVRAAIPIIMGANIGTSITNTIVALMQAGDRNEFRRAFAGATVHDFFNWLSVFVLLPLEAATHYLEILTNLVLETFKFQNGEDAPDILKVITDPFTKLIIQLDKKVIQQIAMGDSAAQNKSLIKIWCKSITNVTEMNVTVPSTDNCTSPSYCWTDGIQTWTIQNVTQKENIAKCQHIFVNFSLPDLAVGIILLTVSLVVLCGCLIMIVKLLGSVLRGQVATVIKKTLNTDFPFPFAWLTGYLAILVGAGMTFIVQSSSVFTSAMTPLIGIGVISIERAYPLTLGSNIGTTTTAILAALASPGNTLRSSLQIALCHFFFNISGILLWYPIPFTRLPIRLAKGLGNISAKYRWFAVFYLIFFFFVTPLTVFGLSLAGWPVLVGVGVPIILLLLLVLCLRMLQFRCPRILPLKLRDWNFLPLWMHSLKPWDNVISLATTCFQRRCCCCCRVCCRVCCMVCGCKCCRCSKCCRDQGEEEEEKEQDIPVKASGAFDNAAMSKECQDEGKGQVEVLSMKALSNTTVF

[4] = target: T3, cynomolgus monkey NaPi2b (cynomolgus monkey, UniProt O95436 1-690 (human entry)); assay: flow cytometry on HEK293-6e cells transfected with cynomolgus monkey NaPi2b, 24 h at 4 C, anti-human IgG Fc AF647
T3 construct: also called Cyno NaPi2b; Cy NaPi2b
T3 chain: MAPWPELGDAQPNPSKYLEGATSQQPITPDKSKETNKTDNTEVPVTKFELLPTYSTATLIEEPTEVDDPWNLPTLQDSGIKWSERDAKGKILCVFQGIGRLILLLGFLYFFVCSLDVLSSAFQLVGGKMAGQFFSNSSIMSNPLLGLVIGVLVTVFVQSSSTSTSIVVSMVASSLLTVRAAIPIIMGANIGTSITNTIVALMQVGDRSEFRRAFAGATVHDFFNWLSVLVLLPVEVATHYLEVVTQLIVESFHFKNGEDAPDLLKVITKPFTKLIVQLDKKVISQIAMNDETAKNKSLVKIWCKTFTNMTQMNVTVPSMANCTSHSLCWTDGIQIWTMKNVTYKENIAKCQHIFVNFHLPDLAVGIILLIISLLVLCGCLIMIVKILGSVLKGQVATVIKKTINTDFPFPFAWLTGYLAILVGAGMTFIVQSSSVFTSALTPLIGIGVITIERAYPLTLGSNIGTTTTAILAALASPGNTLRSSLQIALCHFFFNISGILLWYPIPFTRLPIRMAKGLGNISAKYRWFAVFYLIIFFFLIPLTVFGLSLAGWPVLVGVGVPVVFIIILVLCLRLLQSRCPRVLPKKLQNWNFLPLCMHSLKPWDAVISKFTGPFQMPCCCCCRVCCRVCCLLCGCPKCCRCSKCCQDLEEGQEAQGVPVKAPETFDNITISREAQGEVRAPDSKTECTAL

[5] = target: T1, human sodium-dependent phosphate …; assay: flow cytometry on H441 cells (endogenous NaPi2b), 24 h at 4 C, anti-human IgG Fc AF647, APC-A GeoMean
[6] = target: T1, human sodium-dependent phosphate …; assay: flow cytometry on HCC-78 cells (endogenous NaPi2b), 24 h at 4 C, anti-human IgG Fc AF647, APC-A GeoMean
[7] = target: T1, human sodium-dependent phosphate …; assay: flow cytometry on IGROV-1 cells (endogenous NaPi2b), 24 h at 4 C, anti-human IgG Fc AF647, APC-A GeoMean
[8] = target: T4, KLH (Sigma-Aldrich, H8283); assay: non-specific ELISA, KLH coated, antibody 100 nM
T4 construct: Coating of the non-specific ELISA

[9] = target: T1, human sodium-dependent phosphate …; assay: flow cytometry, IGROV-1 cells (endogenous NaPi2b); parameters: unit not given here
[10] = target: T1, human sodium-dependent phosphate …; assay: flow cytometry, IGROV-1 cells (endogenous NaPi2b); apparent Kd
[11] = target: T1, human sodium-dependent phosphate …; assay: flow cytometry on IGROV-1 cells (endogenous NaPi2b), 24 h at 4 C, anti-human IgG Fc AF647; remark: listed apart in the source
[12] = target: T1, human sodium-dependent phosphate …; assay: KinExA, monovalent antibody, IGROV-1 cells (endogenous NaPi2b) as titrant, N-curve analysis

B1: v38591-MC-GGFG-AM-Compound 139 DAR 8 (antibody, human IgG1, kappa)
heavy: not shown
light: DVQMTQSPSSLSASVGDRVTITCRASQDVYSYLNWYQQKPGKAVKLLIYYTSRLQSGVPSRFSGSGSGTDYTLTISSLQPEDFATYYCQQYNIFPWTFGQGTKLEIKRTVAAPSVFIFPPSDEQLKSGTASVVCLLNNFYPREAKVQWKVDNALQSGNSQESVTEQDSKDSTYSLSSTLTLSKADYEKHKVYACEVTHQGLSSPVTKSFNRGEC
modifications: as above; MC-GGFG-AM-Compound 139 drug-linker on cysteines freed by TCEP reduction; sites not stated; DAR 8
notes: Antibody-drug conjugate of v38591; also called v38593
EC50 (read off the curve) [1]: ~2 nM
EC50 (read off the curve) [2]: ~3 nM
EC50 (read off the curve) [3]: ~0.6 nM
EC50 (read off the curve) [4]: ~0.5 nM

B2: v38591-MC-GGFG-AM-Compound 139 DAR 4 (antibody, human IgG1, kappa)
heavy: not shown
light: DVQMTQSPSSLSASVGDRVTITCRASQDVYSYLNWYQQKPGKAVKLLIYYTSRLQSGVPSRFSGSGSGTDYTLTISSLQPEDFATYYCQQYNIFPWTFGQGTKLEIKRTVAAPSVFIFPPSDEQLKSGTASVVCLLNNFYPREAKVQWKVDNALQSGNSQESVTEQDSKDSTYSLSSTLTLSKADYEKHKVYACEVTHQGLSSPVTKSFNRGEC
modifications: as above; MC-GGFG-AM-Compound 139 drug-linker on cysteines freed by TCEP reduction; sites not stated; DAR 4
notes: Antibody-drug conjugate of v38591
EC50 (read off the curve) [1]: ~2 nM
EC50 (read off the curve) [2]: 2 to 3 nM
EC50 (read off the curve) [5]: ~0.6 nM
EC50 (read off the curve) [6]: ~3 nM
EC50 (read off the curve) [7]: ~2 nM
EC50 (read off the curve) [4]: ~0.4 nM

B3: v23855 (parental mouse-human chimeric anti-NaPi2b antibody) (antibody, human IgG1, kappa, V domains shown)
VH: QAYLQQSGAELVRPGASVKMSCKASGFTFTSYNVHWVKQTPRQGLEWIAAISPGNGDLSYNQRFKDKATLTVDRSSSTAYMQLSGLTSEDSAVYFCARGRTGMGAVDYWGQGTSVTVSS
VL: DVQMTQTASSLSASLGDRVTISCRASQDVYSYLNWYQQKPHGTVKLLIYYTSRLQSGVPSRFTGSGSGTDYSLTISNLEPEDIATYYCQQYNIFPWTFGGGTKLEIKR
notes: IgG1/kappa full-size antibody; also called parental chimeric
NS-ELISA binding score (signal over buffer well) [8]: 2.38
Bmax [9]: 43700
Kd [10]: 0.84 nM
EC50 (read off the curve) [11]: ~0.8 nM

B4: v18992 (MX35)-DL2 (antibody, human IgG1, kappa)
heavy 1: GQVQLVQSGAEVVKPGASVKMSCKASGYTFTGYNIHWVKQAPGQGLEWIGAIYPGNGDTSYKQKFRGRATLTADTSTSTVYMELSSLRSEDSAVYYCARGETARATFAYWGQGTLVTVSSASTKGPSVFPLAPSSKSTSGGTAALGCLVKDYFPEPVTVSWNSGALTSGVHTFPAVLQSSGLYSLSSVVTVPSSSLGTQTYICNVNHKPSNTKVDKKVEPKSCDKTHTCPPCPAPELLGGPSVFLFPPKPKDTLMISRTPEVTCVVVDVSHEDPEVKFNWYVDGVEVHNAKTKPREEQYNSTYRVVSVLTVLHQDWLNGKEYKCKVSNKALPAPIEKTISKAKGQPREPQVYVYPPSRDELTKNQVSLTCLVKGFYPSDIAVEWESNGQPENNYKTTPPVLDSDGSFALVSKLTVDKSRWQQGNVFSCSVMHEALHNHYTQKSLSLSPG
heavy 2: not shown
light: GDIQMTQSPSSLSASVGDRVTITCSASQDIGNFLNWYQQKPGKTVKVLIYYTSSLYSGVPSRFSGSGSGTDYTLTISSLQPEDFATYYCQQYSKLPLTFGQGTKLELKRTVAAPSVFIFPPSDEQLKSGTASVVCLLNNFYPREAKVQWKVDNALQSGNSQESVTEQDSKDSTYSLSSTLTLSKADYEKHKVYACEVTHQGLSSPVTKSFNRGEC
modifications: as above; maleimide functionalized auristatin drug linker (DL2); sites and DAR not stated
notes: also called MX35-DL2 ADC
Bmax [9]: 41200
Kd [10]: 1.22 nM
EC50 (read off the curve) [11]: 1 to 1.7 nM

B5: v29452 (H1L3) (antibody, human IgG1, kappa, V domains shown)
VH: QVQLVQSGAEVKKPGASVKVSCKASGFTFTSYNVHWVRQAPGQGLEWMGAISPGNGDLSYAQKFQGRVTMTRDTSTSTVYMELSSLRSEDTAVYYCARGRTGMGAVDYWGQGTLVTVSS
VL: DVQMTQSPSSLSASVGDRVTITCRASQDVYSYLNWYQQKPGKAVKLLIYYTSRLQSGVPSRFSGSGSGTDYTLTISSLQPEDIATYYCQQYNIFPWTFGQGTKLEIKR
notes: Humanized IgG1/kappa
NS-ELISA binding score (signal over buffer well) [8]: 1.34
Bmax [9]: 47800
Kd [10]: 1.6 nM

B6: v36124 (monovalent format of humanized antibody variant 29456) (antibody, V domains shown)
VH: QVQLVQSGAEVKKPGASVKVSCKASGFTFTSYNVHWVRQAPGQGLEWMGAISPGNGDLSYAQKFQGRVTMTRDTSTSTVYMELSSLRSEDTAVYYCARGRTGMGAVDYWGQGTLVTVSS
VL: DVQMTQSPSSLSASVGDRVTITCRASQDVYSYLNWYQQKPGKAVKLLIYYTSRLQSGVPSRFSGSGSGTDYTLTISSLQPEDFATYYCQQYNIFPWTFGQGTKLEIK
notes: Monovalent format; rest of the construct not described; also called VH1/VL2
Kd [12]: 0.283 nM
